PMC7617879

Biological target: catalytic domain of MMP-14 (MMP-14CAT) (human)
Test: enzyme inhibition assay

Ki: 0.76 nM
Substance: wild-type N-terminal domain of TIMP2 (N-TIMP2) (domain or fragment)
